Laboratory results from patent publication US20050255464A1, “Methods for the identification of peptidyl compounds interacting with extracellular target molecules” (priority 2001, published 2005).

Target: fusion protein encoded by plasmid pIcoFLAGXa (amino terminal FLAG epitope, Factor Xa cleavage sequence Ile-Glu-Gly-Arg-Gly, thioredoxin with the V5 epitope at the active site, GPI linkage), displayed on COS7 cells (E. coli) [thioredoxin: P0AA25]
Test: cell-based or functional assay

cells selected on streptavidin magnetic beads with biotin anti-FLAG antibody after incubation with Factor Xa: 0 % of cells
Substance: Factor Xa (enzyme)
